# Laboratory results taken from PMC9601147.
# Assays:
# Experiment in all cases: SEC
# [1] = target: His6 tagged recombinant IN(R269A/K273A/D256R) (HIV-1 (NL4-3))
# [2] = target: His6 tagged recombinant IN(R269A/K273A/D256N/D270N) (HIV-1 (NL4-3))
# [3] = target: His6 tagged recombinant IN(D256R/R262A/R263A) (HIV-1 (NL4-3))
substance,measurement,setting,value
His6 tagged recombinant IN(R269A/K273A/D256R) (enzyme),stoichiometry N,[1],4
His6 tagged recombinant IN(R269A/K273A/D256N/D270N) (enzyme),stoichiometry N,[2],4
His6 tagged recombinant IN(D256R/R262A/R263A) (enzyme),stoichiometry N,[3],4
